The target of the assay is voltage-sensitive sodium channel of nerve membrane (house fly, Musca domestica, third instar larvae) (Musca domestica).

On to “toxin 4 of the scorpion Leiurus quinquestriatus (peptide)”, for which the activity of insect peripheral nerve preparations was > 500 nM.
